What was measured:
[1] = biological target: T1, full length human TROP2 on 293F-TROP2 cells (clone ID #3A8) (human, UniProt P09758 27-323); test: cell based binding FACS (MFI) on 293F-TROP2 cells expressing human TROP2; unit taken from the x axis (nM)
T1 sequence: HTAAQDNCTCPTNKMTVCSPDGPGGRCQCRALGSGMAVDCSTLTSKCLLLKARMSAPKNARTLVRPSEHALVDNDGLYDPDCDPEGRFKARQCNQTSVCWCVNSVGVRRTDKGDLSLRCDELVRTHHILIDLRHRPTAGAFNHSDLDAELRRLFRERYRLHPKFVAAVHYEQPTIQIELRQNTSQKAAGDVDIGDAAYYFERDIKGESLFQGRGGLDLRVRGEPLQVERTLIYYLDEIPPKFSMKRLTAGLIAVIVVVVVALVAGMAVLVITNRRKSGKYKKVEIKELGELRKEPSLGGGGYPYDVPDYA
Method: Cells were washed twice with FACS buffer, and added with 100 μL/well R-Phycoerythrin AffiniPure Goat Anti-Human IgG, Fey fragment specific (1:1000 dilution in FACS buffer, Jackson Immunoresearch, Cat #109-115-098). Following an incubation of 40 minutes at 4° C. in dark, cells were washed twice and re-suspended in FACS buffer. Fluorescence was measured using a Becton Dickinson FACS Canto II-HTS equipment, and the MFI (mean fluorescence intensity) was plotted against antibody concentration. Data was analyzed using Graphpad Prism software and EC₅₀ values were reported.

human TROP2-his protein [2] = biological target: T2, human TROP2-his protein (human, UniProt P09758 27-274); test: indirect ELISA, plate coated with human TROP2-his; unit taken from the x axis (Con of mAb, ng/mL)
T2 construct: also called biotin labeled human TROP2-his protein
T2 sequence: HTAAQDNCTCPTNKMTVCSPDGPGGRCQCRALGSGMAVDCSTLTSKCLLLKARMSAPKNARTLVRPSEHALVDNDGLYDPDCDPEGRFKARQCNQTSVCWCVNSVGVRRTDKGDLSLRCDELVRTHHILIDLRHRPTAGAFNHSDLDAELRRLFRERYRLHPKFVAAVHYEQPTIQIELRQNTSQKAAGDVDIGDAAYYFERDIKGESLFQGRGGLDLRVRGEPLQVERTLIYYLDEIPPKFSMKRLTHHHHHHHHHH
Method: The single domain antibodies of the disclosure were tested in the indirect ELISA for their cross-reaction with cynomolgus TROP2 protein. Briefly, 96-well micro plates were coated with 100 μl 2 μg/ml human TROP2-his protein (prepared in-house with SEQ ID NO: 16) in carbonate/bicarbonate buffer (pH 9.6) overnight at 4° C. ELISA plates were washed once with wash buffer (PBS+0.05% v/v Tween-20, PBST) and then blocked with 200 μl/well blocking buffer (5% w/v non-fatty milk in PBST) for 2 hours at 37° C. Plates were washed 4 times and incubated with 100 μl/well serially diluted anti-TROP2 antibodies of the disclosure or controls (starting at 66.7 nM, 5-fold serial dilution in 2.5% w/v non-fatty milk in PBST) for 40 minutes at 37° C. ELISA plates were washed 4 times again and incubated with Peroxidase AffiniPure F(ab′)₂ Fragment Goat Anti-Human IgG, Fey fragment specific (Jackson Immuno Research, Cat #109-036-098, 1:5000 dilution in PBST buffer, 100 μl/well) for 40 minutes at 37° C. After a final wash, plates were incubated with 100 μl/well TMB (Innoreagents) at room temperature. The reaction was stopped 3-10 minutes later at room temperature with 50 μl/well 1M H₂SO₄, and the absorbance of each well was read on a microplate reader using dual wavelength mode with 450 nm for TMB and 630 nm as the reference wavelength. The OD (450-630) values were plotted against antibody concentration. Data was analyzed using Graphpad Prism software and EC₅₀ values were reported.

human TROP2-his protein [3] = biological target: T2, human TROP2-his protein; test: capture ELISA: antibody captured on anti-human IgG Fc coated plate, biotin labeled human TROP2-his detected with streptavidin-HRP; unit taken from the x axis (nM)
Method: For the capture ELISA, 96-well plates were coated with 100 μl 2 μg/ml AffiniPure F(ab′)₂ Fragment GoatAnti-Human IgG, Fey fragment specific (Jackson Immuno Research, Cat #109-006-008) in PBS overnight at 4° C. Plates were washed once with wash buffer (PBS+0.05% v/v Tween-20, PBST) and then blocked with 200 μl/well blocking buffer (5% w/v non-fatty milk in PBST) for 2 hours at 37° C. Plates were washed 4 times and respectively incubated with 100 μl serially diluted anti-TROP2 antibodies of the disclosure, the benchmark or negative control hIgG (human immunoglobulin (pH4) for intravenous injection, Hualan Biological Engineering Inc.) (5-fold dilution in 2.5% w/v non-fatty milk in PBST, starting at 66.7 nM) for 40 minutes at 37° C., and then washed 4 times again. […] The reaction was stopped in 3-10 minutes at room temperature with 50 μl/well 1M H₂SO₄, and the absorbance of each well was read on a microplate reader using dual wavelength mode with 450 nm for TMB and 630 nm as the reference wavelength. […] Data was analyzed using Graphpad Prism software and EC₅₀ values were reported.

human TROP2-his protein [4] = biological target: T2, human TROP2-his protein; test: indirect ELISA on human TROP2; unit taken from the x axis (nM)
[5] = biological target: T3, cynomolgus TROP2-his protein (cynomolgus, UniProt P09758 27-272 (human entry), limits assumed); test: indirect ELISA on cynomolgus TROP2; unit taken from the x axis (nM)
T3 construct: also called Cyno TROP2-his; Cynomolgus monkey TROP2-his protein
T3 chain: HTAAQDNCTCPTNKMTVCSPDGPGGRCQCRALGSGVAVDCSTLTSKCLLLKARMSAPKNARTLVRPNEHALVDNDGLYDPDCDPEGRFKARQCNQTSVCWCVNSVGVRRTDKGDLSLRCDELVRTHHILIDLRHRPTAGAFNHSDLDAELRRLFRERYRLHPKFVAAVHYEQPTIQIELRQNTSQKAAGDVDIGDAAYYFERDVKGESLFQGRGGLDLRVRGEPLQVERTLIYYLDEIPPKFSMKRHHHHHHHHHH

Row | Binder | EC50 [1] [nM] | EC50 (human TROP2-his protein [2]) [µg/mL] | EC50 (human TROP2-his protein [3]) [nM] | EC50 (human TROP2-his protein [4]) [nM] | EC50 [5] [nM]
1 | sacituzumab (benchmark, an analog of sacituzumab, in house made) (antibody, human IgG1, kappa, V domains shown, also called BM; BM1) VH: SVQLQQSGSELKKPGASVKVSCKASGYTFTNYGMNWVKQAPGQGLKWMGWINTYTGEPTYTDDFKGRFAFSLDTSVSTAYLQISSLKADDTAVYFCARGGFGSSYWYFDVWGQGSLVTVSS VL: DIQLTQSPSSLSASVGDRVSITCKASQDVSIAVAWYQQKPGKAPKLLIYSASYRYTGVPDRFSGSGSGTDFTLTISSLQPEDFAVYYCQQHYITPLTFGAGTKVEIKR | 0.706 | 0.0374 | 0.269 | 0.162 | 0.161
2 | single domain antibody 01-9F (VHH) VHH: QVQLVESGGGSVQAGGSLRLSCVVSGLPYERYCVAWFRQGPGKEREGVARILSDGTTSYSDSVKGRFTISKDNAKNTLYLQMNSLKSEDTATYYCAAEAFRPFTPSDGDCTTVLGIDYWGKGTPVTVSS | 0.53 | 0.0208 | 0.164 | 0.104 | 0.107

Reference: patent publication US20230383007A1 (BIOSION, published 2023)
